In patent publication US20240092867A1 (UNIVERSITY OF CHICAGO, published 2024):

Tests used:
[1] = molecular target: T1, recombinant human vWF A3 domain (human, UniProt P04275 1683-1874); assay: ELISA, domain coated 50 nM
T1 construct: domain: A3
Method: (§1) ELISA was performed as previously reported1. […] After blocking with 2% BSA solution containing PBS-T, 1 μg/mL of recombinant human VEGF-A121 (PeproTech), recombinant human VEGF-A145 (R & D Systems), or recombinant human VEGF-A165 (PeproTech) was added. Bound VEGF-A was detected with 1 μg/mL of mouse anti-human VEGF-A antibody (clone: 26503, R & D systems). After 60 min of incubation, horseradish peroxidase (HRP) conjugated goat anti-mouse antibody (1:2000 dilution, Dako) was added and incubated for another 60 min. Color development and the absorbance measurement were done as described above.

[2] = molecular target: T2, recombinant human vWF A2 domain (human, UniProt P04275 1498-1665); assay: ELISA, domain coated 50 nM
T2 construct: domain: A2
Method: as §1

[3] = molecular target: T3, laminin-521 (human, UniProt O15230 36-3695; P55268 33-1798; P11047 34-1609); assay: SPR; laminin-521 immobilised on the chip (~2000 RU), VEGF-A165 flowed at 10-100 nM; Langmuir fit
T3 construct: Full-length recombinant human laminin isoform (BioLamina); chains read from the isoform name
Method: (§2) A450 nm represents absorbance at 450 nm. BSA-coated wells served as negative controls (n=4, mean±SEM). Signals greater than 0.1 (grey box) are considered to be significant. […] Experimental curves were fitted with Langmuir binding kinetics.
(§3) The obtained binding curves were fitted with Langmuir binding kinetics to calculate specific dissociation constants (KD) (FIG. 1B).
(§4) SPR analysis was performed as described previously². In brief, measurements were made with a Biacore 3000 SPR system (GE Healthcare). […] VEGF-A165, PDGF-BB, or PlGF-2 was flowed at increasing concentrations in the running buffer at 20 μL/min. The sensor chip was regenerated with 50 mM NaOH for every cycle. Specific bindings of GFs to laminin were calculated by comparison to a non-functionalized channel used as a reference. Experimental results were fitted with Langmuir binding kinetics using BIAevaluation software (GE Healthcare).

[4] = molecular target: T4, human plasma-derived vWF (human, UniProt P04275 764-2813); assay: SPR, vWF immobilised, GF flowed, 1:1 Langmuir fit
T4 construct: mature; also called plasma-derived purified vWF; von Willebrand factor
Method: A450 nm represents absorbance at 450 nm. Signals from VEGF-A121 served as a baseline, and bovine serum albumin (BSA) served as a negative control (n=4, mean±SD). […] Experimental curves were fitted with (C) 1:1 Langmuir fit model and (D) heterogeneous ligand-parallel reactions binding.
SPR assays were performed as described previously2. In brief, measurements were made with a Biacore X100 SPR system or Biacore 3000 SPR system (GE Healthcare). […] Recombinant human VEGF-A165, VEGF-A121, or PDGF-BB was flowed at increasing concentrations in the running buffer at 30 μL/min. The sensor chip was regenerated with glycine at pH 2 for every cycle.

[5] = molecular target: T3, laminin-521; assay: SPR, laminin-521 immobilised, GF flowed, Langmuir fit
Method: as §2, §3, §4

B1: vascular endothelial growth factor (VEGF)-A165 (ligand, human, UniProt P15692-4 27-191, looked up)
chain: APMAEGGGQNHHEVVKFMDVYQRSYCHPIETLVDIFQEYPDEIEYIFKPSCVPLMRCGGCCNDEGLECVPTEESNITMQIMRIKPHQGQHIGEMSFLQHNKCECRPKKDRARQENPCGPCSERRKHLFVQDPQTCKCSCKNTDSRCKARQLELNERTCRCDKPRR
notes: mature; Purchased in mature form, not glycosylated
binding result [1]: no binding (tested: 1 µg/mL) | binding result [2]: no binding (tested: 1 µg/mL) | Kd [3]: 5.78 nM | koff [3]: 0.00324 s⁻¹ | kon [3]: 561000 M⁻¹ s⁻¹ | Kd [4]: 27 nM | Kd [5]: 5.8 nM
